Where a SMILES comes first, the peptide text is derived from it. The star is where a group is joined. Cbz = O=C(OCc1ccccc1)*
Key:
[1] = tested on: HIF-1α protein in MIA PaCa-2 cells; test: HIF-1α protein level and stability in CHC knockdown cells (Western blot); type: cell-based, human; settings: MG132 10 μM, DFX 100 μM
Experimental: (§1) Cells were extracted with RIPA buffer and the supernatants were immunoprecipitated using either anti-CHC antibody, Pa65-2, mAb X-22 (Affinity), or anti-HIF-1α antibody (BD), then analyzed by immunoblotting. The signals were developed using enhanced chemiluminescence reagents (ECL) (Thermo).
(§2) For hypoxia experiments, MIA PaCa-2 cells were grown in a Ruskinn Hypoxic Chamber (APM-50D, 18 Astec, Japan) and treated with either 1% O2, 5% CO2 for 18 h, or given DFX, deferoxamine (100 μM, Sigma) treatment for 5 or 16 h. For proteasome inhibitor treatment, MG132 (10 μM, Sigma) was added to culture medium then incubated 5 to 17 h.

pancreatic cancer = settings: cited from earlier work
MIA PaCa-2 cells [2] = test: Binding of Pa65-2 to cells by ELISA, flow cytometry and immunofluorescence; type: cell-based, human; settings: flow cytometry, immunofluorescent analyses
Experimental: Cells were cultured in 96-well polystyrene plates for 3 days and then fixed with 2% paraformaldehyde. After blocking and washing twice with PBS/0.1 % Tween 20 (PBST0.1), the hybridoma supernatants were added and the plates were incubated for 2 h at room temperature. This was followed by washing and incubating with horseradish peroxidase (HRP)-conjugated goat anti-mouse IgG for 1 h. The colorimetric reaction was developed with the substrate ortho-phenylene-diamine (OPD) according to the manufacturer's instructions (Sigma), and was stopped by adding 3 N HCl. Absorbance at 490 nm was measured using a microplate reader. Each control and test group was tested in triplicate. Each experiment was repeated at least three times. To analyse binding, cells (1×10^5 cells per tube) were prepared, washed, centrifuged, and resuspended in 100 μl of PBS/1% FCS containing Pa65-2 or NM-IgG. Cells were incubated at 4° C. for 1 h, washed twice with PBS/1% FCS and stained with […] isothiocyanate (FITC)-labeled goat anti-mouse IgG at 4° C. for 20 min. The stained cells were washed twice and fluorescence signals were measured using a FACScan (BD). […]
(§3) 3×10^3 cells were cultured into each well of 96-well polystyrene plates for 3 days and fixed with 2% paraformaldehyde. […] Absorbance at 490 nm was measured using a microplate reader. […]

[3] = tested on: pancreatic adenocarcinoma cell lines MIA PaCa-2 and AsPC-1; test: ELISA and Western blot binding screen on pancreatic adenocarcinoma cell lines; type: cell-based, human; settings: MIA PaCa-2, AsPC-1 versus normal HUVEC, NNM, CCD-1112Sk
Experimental: as §1
(§4) Cells were cultured in 96-well polystyrene plates for 3 days and then fixed with 2% paraformaldehyde. After blocking and washing twice with PBS/0.1 % Tween 20 (PBST0.1), the hybridoma supernatants were added and the plates were incubated for 2 h at room temperature. This was followed by washing and incubating with horseradish peroxidase (HRP)-conjugated goat anti-mouse IgG for 1 h. The colorimetric reaction was developed with the substrate ortho-phenylene-diamine (OPD) according to the manufacturer's instructions (Sigma), and was stopped by adding 3 N HCl. Absorbance at 490 nm was measured using a microplate reader. Each control and test group was tested in triplicate. Each experiment was repeated at least three times. […] The stained cells were washed twice and fluorescence signals were measured using a FACScan (BD).
as §3

[4] = tested on: MDAMB-231 (breast cancer), CL1-5 (lung cancer), SKOV3 (ovary cancer) and SAS (oral cancer); test: ELISA and Western blot binding on other cancer cell lines; type: cell-based, human; settings: MDAMB-231, CL1-5, SKOV3, SAS
Experimental: as §1, §4, §3

[5] = tested on: human pancreatic cancer tissue array; test: Immunohistochemistry of Pa65-2 on human pancreatic cancer tissue arrays; settings: for Labeling Score: score 0-4
Experimental: (§5) The human pancreatic cancer gene expression arrays (Origene) were analyzed by an ABI9600 thermocycler (Applied Biosystems). Tissue arrays were purchased from Pantomics Inc. Tissue sections were stained with antibodies specific for CHC (Pa65-2), VEGF (GeneTex), HIF-1α (Millipore), NM-IgG, and UEA-1-FITC (Vector). Quantification of DAB intensity was by HistoQuest software (TissueGnostics). The protocol was approved by the institutional Review Board of Human Subjects Research Ethics Committee of Academia Sinica (Taipei).
We modified the “Quick Score” methods by reducing the original scales (Siegel et al. (2012) “Cancer statistics 2012” CA Cancer J Clin, 62, 10-29). Two indices were used in evaluating the staining results of tumors. Labeling Index (LI) indicates the number of tumor cells that were immunostained (or “positive cells”) as a proportion of the overall number of cells. A score on a scale of 0-2 was assigned; 0-10%=0, 11-49%=1, 50-100% =2. The second index is the Intensity Index (II), which measures the average intensity of the immunostaining. A score on a scale of 0-2 was assigned; no staining=0, weak staining=1, and strong staining=2. The scores from these two indices were added to give the tumor Labeling Score (LS), which ranges from 0-4.

[6] = tested on: blood vessels of human pancreatic cancer tissues; test: Immunofluorescent co-staining of Pa65-2 and UEA-1 in pancreatic cancer tissue
Experimental: as §5

[7] = target: T1, human clathrin heavy chain (CHC) (Homo sapiens, UniProt Q00610); test: Target identification: immunoaffinity, LC-MS/MS, immunoprecipitation and Western blot; type: binding; settings: immunoprecipitation and Western blot in parallel with mAb X-22; CHC knockdown
T1 construct: endogenous in cells; host or cells: MIA PaCa-2 (human pancreatic adenocarcinoma cells)
Experimental: MIA PaCa-2 cell lysates were purified by protein G sepharose (GE), coupled with Pa65-2 and eluted with elution buffer. The eluates were separated by SDS-PAGE. The band of interest was cut from the gel, reduced with dithioerythreitol (DTE) alkylated with iodoacetamide (IAA) and digested with trypsin for 16 h at 37° C. The digested peptides were analyzed by LC-MS/MS sequencing in the Core Facility for Proteomics and Structural Biology Research at Academia Sinica (Taipei).
as §1

MIA PaCa-2 cells [8] = test: EGF and transferrin uptake (internalization) assay; type: cell-based, human; settings: pretreated 50 μg/ml at 37° C.
Experimental: EGF and Tf uptake assays were carried out using a fluorescence-based approach, as previously described (26). Cells were washed with serum-free medium, incubated in 1% BSA in serum-free medium at 37° C., and pretreated with Pa65-2 or NM-IgG (50 μg/ml) at 37° C. They were then incubated with or without Alex 555-EGF (1 μg/ml, INVITROGEN™) or Alex 555-transferrin (50 μg/ml) at 37° C. or 4° C. The cells were imaged using a Leica TCS SP confocal microscope (Leica).

MIA PaCa-2 cells [9] = test: MTT cell proliferation assay; type: cell-based, human; settings: 50 μg/ml for 3 days
Experimental: Cells were cultured in 96-wells plates. To reduce cancer growth, the cells were culture in Dulbecco's modified Eagle's medium (DMEM) containing 50 μg/ml Pa65-2 or NM-IgG. After incubating for 0, 1, 2, 3 days, the cells were subjected to an MTT assay. The absorbance was determined with a microplate reader at 540 nm. Each assay was repeated for three times.

MIA PaCa-2 cells [10] = test: Matrigel invasion assay; type: cell-based, human
Experimental: RT-CES (ACEA), a microelectronic cell sensor system, was used to count tire number of living cells. Cells (5×10^3) were seeded into each sensor-containing well in microliter plates. The electronic sensors provided a continuous (every 6 h), quantitative measurement of the cell index in each well. Cell growth was measured for 72 h, and cell indices for each well were recorded at all time points. Cell invasion was assayed in 24-well Biocoat Matrigel invasion chambers (8 μm; Millipore) according to the manufacturer's directions. Cells were counted under a microscope in five predetermined fields. Assays were performed in triplicate.

MIA PaCa-2 cells [11] = test: Apoptosis assay (FLICA caspase activity); type: cell-based, human; settings: 24 h
Experimental: Apoptosis of cultured cells was verified through the detection of caspase activity using sulforhodamine FLICA apoptosis detection kit (Immunochemistry Technologies). Cells in 96-well culture plates were treated with Pa65-2 or NM-IgG for 24 h. After incubating with FLICA, cells was read at ex/era of 550/595 nm with fluorescence plate reader (Molecular Devices).

[12] = tested on: HIF-1α expression and VEGF secretion in MIA PaCa-2 cells; test: Western blot of HIF-1α expression and VEGF secretion under DFX hypoxia; type: cell-based, human; settings: DFX 100 μM, 50 μg/ml, 48 h
Experimental: as §1, §2

HUVECs [13] = test: Inhibition of HUVEC VEGF internalization; type: cell-based, human; settings: 50 μg/ml, VEGF-A 40 ng/ml
Experimental: HUVEC were washed with serum-free medium, incubated in 1% BSA in serum-free medium at 37° C., and pretreated with Pa65-2 or NM-IgG (50 μg/ml) at 37° C. They were then incubated with or without VEGF-A (40 ng/ml) at 37° C. or 4° C. After cells were washed, fixed and made permeable. The permeable cells were incubated with anti VEGF-A antibody (A-20, Santa Cruz). Finally, cells were stained using Rhodamine-conjugated secondary antibodies.

HUVECs [14] = test: Apoptosis in HUVEC by TUNEL staining; type: cell-based, human
Experimental: (§6) CD31 staining and TUNEL assays were carried out as described previously. The slides were then visualized under a fluorescent microscope and analyzed with MetaMorph software.

[15] = tested on: MIA PaCa-2-derived pancreatic cancer xenografts; test: Antitumor efficacy of Pa65-2 in pancreatic cancer xenografts; type: in vivo, NOD/SCID mice
Experimental: All animal experiments were performed as per the guidelines of the National Laboratory Animal Center. The protocol was approved by the Committee on the Ethics of Animal Experiments of Academia Sinica (Taipei). A xenograft model was generated by injecting NOD/SCID mice with MIA PaCa-2 cells transduced with either CHC shRNA or control vector. The two kinds of transduced cells were injected into different lateral sides of the hind limbs of eight animals at the same time. For analysis of antitumor efficacy of Pa65-2, NOD/SCID mice bearing MIA PaCa-2-derived pancreatic cancer xenografts (˜50 mm^3) were intravenously injected in the tail vein with Pa65-2, or gemcitabine, or NM-IgG, or equivalent
volumes of PBS. Tumors were measured by calipers every three days, and mice were observed routinely for weight loss as a symptom of drug toxicity. The tumor volumes were calculated as length×(width)^2×0.52. Animals were treated following the guidelines established by Academia Sinica (Taipei).
as §6

T1 sequence (Q00610 whole entry): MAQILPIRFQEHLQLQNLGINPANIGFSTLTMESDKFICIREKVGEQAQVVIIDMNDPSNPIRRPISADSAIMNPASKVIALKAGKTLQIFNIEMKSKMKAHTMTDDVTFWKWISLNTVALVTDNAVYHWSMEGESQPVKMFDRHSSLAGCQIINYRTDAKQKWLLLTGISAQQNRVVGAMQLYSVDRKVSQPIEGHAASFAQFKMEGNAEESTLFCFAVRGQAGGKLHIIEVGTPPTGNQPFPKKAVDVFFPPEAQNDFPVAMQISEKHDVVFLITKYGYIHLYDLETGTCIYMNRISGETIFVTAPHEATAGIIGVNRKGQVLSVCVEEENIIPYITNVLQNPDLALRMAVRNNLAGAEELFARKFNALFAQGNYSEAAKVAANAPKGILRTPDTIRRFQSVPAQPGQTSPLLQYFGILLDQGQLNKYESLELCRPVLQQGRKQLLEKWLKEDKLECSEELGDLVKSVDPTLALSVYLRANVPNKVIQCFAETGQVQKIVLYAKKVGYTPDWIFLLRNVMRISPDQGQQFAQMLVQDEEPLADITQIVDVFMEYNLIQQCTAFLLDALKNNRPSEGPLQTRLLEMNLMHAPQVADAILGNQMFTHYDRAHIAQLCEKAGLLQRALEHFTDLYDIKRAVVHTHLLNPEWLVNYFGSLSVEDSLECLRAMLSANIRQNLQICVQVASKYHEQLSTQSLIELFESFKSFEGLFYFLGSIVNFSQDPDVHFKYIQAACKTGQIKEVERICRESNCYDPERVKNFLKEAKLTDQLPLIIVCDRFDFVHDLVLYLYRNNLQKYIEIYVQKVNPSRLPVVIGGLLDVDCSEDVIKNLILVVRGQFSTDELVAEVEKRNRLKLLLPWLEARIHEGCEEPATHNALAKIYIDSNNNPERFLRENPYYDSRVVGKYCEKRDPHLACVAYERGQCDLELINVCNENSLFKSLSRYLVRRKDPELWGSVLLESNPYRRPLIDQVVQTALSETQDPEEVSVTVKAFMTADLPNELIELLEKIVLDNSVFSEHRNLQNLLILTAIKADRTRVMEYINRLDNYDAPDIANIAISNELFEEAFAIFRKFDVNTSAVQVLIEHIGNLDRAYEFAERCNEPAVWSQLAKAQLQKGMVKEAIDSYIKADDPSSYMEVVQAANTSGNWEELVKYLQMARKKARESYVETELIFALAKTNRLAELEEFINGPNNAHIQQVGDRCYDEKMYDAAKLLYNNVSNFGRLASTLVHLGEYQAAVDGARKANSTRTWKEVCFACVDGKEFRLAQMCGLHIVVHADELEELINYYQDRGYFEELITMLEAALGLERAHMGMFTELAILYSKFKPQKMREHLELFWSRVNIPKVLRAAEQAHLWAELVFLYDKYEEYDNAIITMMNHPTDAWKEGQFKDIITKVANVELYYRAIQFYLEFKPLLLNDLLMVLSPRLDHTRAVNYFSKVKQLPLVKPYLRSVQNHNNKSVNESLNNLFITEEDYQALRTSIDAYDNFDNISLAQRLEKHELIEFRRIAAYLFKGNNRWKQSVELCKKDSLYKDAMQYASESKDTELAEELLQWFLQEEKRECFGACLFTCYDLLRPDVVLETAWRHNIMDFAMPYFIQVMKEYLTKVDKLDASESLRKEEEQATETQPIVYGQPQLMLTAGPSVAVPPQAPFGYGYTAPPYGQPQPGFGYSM

With `CC(C)C[C@@H](C=O)NC(=O)[C@H](CC(C)C)NC(=O)[C@H](CC(C)C)NC(=O)OCc1ccccc1` [MG132] (Cbz-Leu-Leu-Leu-aldehyde) the “decreased protein level of HIF-1α in CHC knockdown cells” value [1] was “rescued”.

For `Nc1ccn([C@@H]2O[C@H](CO)[C@@H](O)C2(F)F)c(=O)n1` [gemcitabine], the “effectiveness in treating pancreatic cancer” value (pancreatic cancer; most commonly used medicine) is listed as “only moderately effective”.

For bevacizumab, the “improvement in overall survival of pancreatic cancer patients” value (pancreatic cancer; clinical trial, in combination with small molecule drugs) is given as “no significant improvement”.

B1: Pa65-2: monoclonal antibody that recognizes human clathrin heavy chain (CHC); VH SEQ ID NO: 2, VL SEQ ID NO: 3 (antibody, listed as Homo sapiens, V domains shown)
VH: EVKLVESGGGLVKPGGSLNISCAASGFTFSNYVMSWVRQTPEKRLEWVATISSGDNYMYYPDSVKGRFTISSDNAKNTLFLQMSSLRSEDTALYYCARHFDNYEGNSMDYWGQGTSVTVSSAKTTPPSDYPLA
VL: DIVLTQSPATLSVTPGDSVSLSCRASQSIRSNLHWYQQKSHESPRLLIKYASQSISGIPSRFSGSGSGTDFILSINSVATEDFGVYFCQQSNSWPLTFGAGTKLELKRADAAPTVS
For B1, the “recognition of MIA PaCa-2 cells” value (MIA PaCa-2 cells [2]) was “specifically recognize MIA PaCa-2 cells”, the “binding affinity to pancreatic cancer cell lines” value [3] was “strong binding affinity” and the “binding to other types of cancer cell lines” value [4] was “can also bind”. The “staining of pancreatic cancer tissues” value ([5]; 46 specimens, tissue array) was “positively stained”, the “Labeling Score” value ([5]; Adenocarcinoma I, stage T2N0M0) was 3 and the “Labeling Score” value ([5]; Adenocarcinoma I, stage T2N1M0) was 2. For the same molecule, the “Labeling Score” value ([5]; Adenocarcinoma I, stage T3N0M0) was 3, the “Labeling Score” value ([5]; Adenocarcinoma I, stage T3N1M0) was 3 and the “Labeling Score” value ([5]; Adenocarcinoma II, stage T2N0M0) was 2. For the same molecule, the “Labeling Score” value ([5]; Adenocarcinoma II, stage T3N0M0) was 3, the “Labeling Score” value ([5]; Adenocarcinoma II, stage T3N1MX) was 3 and the “Labeling Score” value ([5]; Adenocarcinoma II, stage T4N1M1) was 4. For the same molecule, the “Labeling Score” value ([5]; Adenocarcinoma III, stage T3N0M0) was 3, the “Labeling Score” value ([5]; Adenocarcinoma III, stage T3N1MX) was 3 and the “Labeling Score” value ([5]; Normal Pancreas) was 0. For the same molecule, the “staining of normal pancreatic tissues” value ([5]; two normal pancreatic tissues, tissue array) was “two normal pancreatic tissues were not”, the “colocalization of Pa65-2 antigen with endothelial cell marker UEA-1” value [6] was “colocalized” and the “specificity for CHC” value [7] was “specifically recognized CHC”. For the same molecule, the EGF uptake (MIA PaCa-2 cells [8]; Alex 555-EGF 1 μg/ml) was “blocked”, the transferrin uptake (MIA PaCa-2 cells [8]; Alex 555-transferrin 50 μg/ml) was “blocked” and the cancer cell proliferation (MIA PaCa-2 cells [9]) was “inhibited”. The “migration (FIG. 5C)” value (MIA PaCa-2 cells [10]) was “inhibited”, the cell apoptosis (MIA PaCa-2 cells [11]) was “induced cell apoptosis” and the “hypoxia-induced HIF-1α expression” value [12] was “suppressed”. For the same molecule, the VEGF secretion ([12]; culture media) was “suppressed”, the VEGF internalization (HUVECs [13]) was “suppressed VEGF internalization” and the “apoptosis in HUVECs” value (HUVECs [14]) was “induced apoptosis”. For the same molecule, the “average tumor volume smaller than the control groups” value ([15]; 10 mg/kg i.v. every three days, day 36, n=6, P<0.05) was “about 2 fold”, the “blood vessels in tumor sections” value ([15]; CD31 staining, P<0.05) was “decreased” and the “inhibitory effect on tumor growth compared with gemcitabine” value ([15]; Pa65-2 10 mg/kg versus gemcitabine 15 mg/kg, i.v.) was “equivalent effects”. The “apoptotic cells in tumor sections” value ([15]; TUNEL, n=6, P<0.01) was “increased”.
